B1: IpaH7.8 protein (residues 23–565) [Shigella flexneri] / GSDMB (residues 1-411) [human] (parent complex)
chain 1: SNEHYLRILTEWEKNSSPGEERGIAFNRLSQCFQNQEAVLNLSDLNLTSLPELPKHISALIVENNKLTSLPKLPAFLKELNADNNRLSVIPELPESLTTLSVRSNQLENLPVLPNHLTSLFVENNRLYNLPALPEKLKFLHVYYNRLTTLPDLPDKLEILCAQRNNLVTFPQFSDRNNIRQKEYYFHFNQITTLPESFSQLDSSYRINISGNPLSTRVLQSLQRLTSSPDYHGPQIYFSMSDGQQNTLHRPLADAVTAWFPENKQSDVSQIWHAFEHEEHANTFSAFLDRLSDTVSARNTSGFREQVAAWLEKLSASAELRQQSFAVAADATESCEDRVALTWNNLRKTLLVHQASEGLFDNDTGALLSLGREMFRLEILEDIARDKVRTLHFVDEIEVYLAFQTMLAEKLQLSTAVKEMRFYGVSGVTANDLRTAEAMVRSREENEFTDWFSLWGPWHAVLKRTEADRWAQAEEQKYEMLENEYSQRVADRLKASGLSGDADAEREAGAQVMRETEQQIYRQLTDEVLALRLSENGSRLHHS
chain 2: MFSVFEEITRIVVKEMDAGGDMIAVRSLVDADRFRCFHLVGEKRTFFGCRHYTTGLTLMDILDTDGDKWLDELDSGLQGQKAEFQILDNVDSTGELIVRLPKEITISGSFQGFHHQKIKISENRISQQYLATLENRKLKRELPFSFRSINTRENLYLVTETLETVKEETLKSDRQYKFWSQISQGHLSYKHKGQREVTIPPNRVLSYRVKQLVFPNKETMSAGLDIHFRGKTKSFPEGKSLGSEDSRNMKEKLEDMESVLKDLTEEKRKDVLNSLAKCLGKEDIRQDLEQRVSEVLISGELHMEDPDKPLLSSLFNAAGVLVEARAKAILDFLDALLELSEEQQFVAEALEKGTLPLLKDQVKSVMEQNWDELASSPPDMDYDPEARILCALYVVVSILLELAEGPTSVSS

In the assay the parent is B1. The assay can be described thus: ITC; parent: 94 nM.
On to chain 1 N124A, for which the Kd was found to be 360 nM.
